These results are taken from patent US20190367592A1 (AC IMMUNE, published 2019).

One may read the Kd as the constant that tells how readily two partners part at equilibrium.

Residue numbers refer to the chain shown, from its start. In names and notes the source's numbering stands. Several values for one entry are separate records, joined by “and”; a condition that tells them apart may be missing. Identical values can stand only once. Where only a bound is given, the exact number is not on record here.

Assay [1] deals with T1, AVI-tag biotinylated monomeric flTau (human, UniProt P10636-8 1-441, site-specific biotin on AVI-tag).
T1 construct: also called monoTau; monomeric Tau
T1 sequence (P10636 other isoform, or with tags, fused parts or gaps limits assumed): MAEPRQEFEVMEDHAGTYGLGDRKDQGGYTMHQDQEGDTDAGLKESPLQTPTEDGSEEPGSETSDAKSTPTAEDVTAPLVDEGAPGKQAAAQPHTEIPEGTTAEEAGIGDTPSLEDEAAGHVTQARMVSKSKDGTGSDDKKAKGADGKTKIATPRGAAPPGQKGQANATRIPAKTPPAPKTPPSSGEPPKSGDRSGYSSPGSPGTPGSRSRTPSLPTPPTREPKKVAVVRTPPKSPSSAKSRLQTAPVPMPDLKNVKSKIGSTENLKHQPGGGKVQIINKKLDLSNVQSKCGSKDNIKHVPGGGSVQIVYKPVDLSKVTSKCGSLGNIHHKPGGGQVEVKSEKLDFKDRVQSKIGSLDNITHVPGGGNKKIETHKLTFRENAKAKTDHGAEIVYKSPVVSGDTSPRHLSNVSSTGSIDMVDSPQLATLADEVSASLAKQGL
Kind of assay: capture ELISA, antibody on anti-IgG plate, biotinylated monoTau titrated, O.D. How it is done: (§1) For the oligoTau and monoTau capture ELISAs, antibodies contained in serum-free sterile hybridoma supernatants were immobilized on an anti-IgG coated plate at 500-fold dilution, followed by the incubation of oligoTau or monoTau, both with site-specific biotinylation via an AVI-tag. The target incubations started at 5 μg/mL and then were diluted 8- or 16-fold. Streptavidin-HRP and ABTS substrate was used for signal quantitation in a plate reader (Tecan, Switzerland). Results are expressed as O.D.
(An ELISA detects its analyte on a solid surface through an enzyme-linked reagent.)

For assay [2], the target named is T2, full-length human Tau (flTau) (human, UniProt P10636-8 1-441).
T2 construct: range 1-441; bought (SignalChem); also called human Tau-441
Kind of assay: indirect ELISA, flTau coated, hybridoma supernatant diluted, O.D. How it is done: Coating was done overnight in phosphate-buffered saline (PBS) at 4° C. Plates were washed thoroughly with 0.05% Tween-20/PBS and then blocked with 1% bovine serum albumin (BSA) in 0.05% Tween-20/PBS for 1 hr at 37° C. The antibody contained in the hybridoma supernatant was then added at the indicated dilutions, and incubated for 2 hrs at 37° C. after which the plates were washed as described previously.
For the indirect ELISAs, an AP-conjugated anti-mouse IgG secondary antibody (Jackson ImmunoResearch Laboratories, United Kingdom) was added at 1/6000 dilution in 0.05% Tween-20/PBS for 2 hr at 37° C. After the final wash, plates were incubated with p-nitrophenyl phosphate disodium hexahydrate (pNPP; Sigma-Aldrich, Switzerland) phosphatase substrate solution, and read at 405 nm using an ELISA plate reader (Tecan, Switzerland). Results are expressed as optical densities (O.D.).

Assay [3] concerns the target T3, AVI-tag biotinylated oligomeric flTau (human, UniProt P10636-8 1-441, site-specific biotin on AVI-tag).
T3 construct: also called oligoTau; oligomeric Tau
Kind of assay: capture ELISA, antibody on anti-IgG plate, biotinylated oligoTau titrated, O.D. On the procedure: as §1

The target of assay [4] is T4, recombinant human Tau monomer, 2N4R isoform (amino acids 2-441) (human, UniProt P10636-8 2-441).
T4 construct: range 2-441; N-terminal His-tag removed with TEV protease; also called monomeric Tau
T4 sequence (P10636 other isoform, or with tags, fused parts or gaps limits assumed): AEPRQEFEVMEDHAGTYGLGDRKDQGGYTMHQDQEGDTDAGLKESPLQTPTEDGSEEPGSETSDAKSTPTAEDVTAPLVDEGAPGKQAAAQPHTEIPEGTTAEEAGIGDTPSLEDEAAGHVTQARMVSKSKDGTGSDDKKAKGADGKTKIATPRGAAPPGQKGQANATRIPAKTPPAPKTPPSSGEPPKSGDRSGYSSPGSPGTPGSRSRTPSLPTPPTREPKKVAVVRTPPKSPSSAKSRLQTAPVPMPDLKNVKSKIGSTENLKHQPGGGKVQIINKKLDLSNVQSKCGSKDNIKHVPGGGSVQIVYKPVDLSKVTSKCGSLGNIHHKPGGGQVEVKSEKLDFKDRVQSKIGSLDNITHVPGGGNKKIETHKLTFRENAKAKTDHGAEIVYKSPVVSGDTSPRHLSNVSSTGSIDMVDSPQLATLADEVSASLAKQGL
Kind of assay: SPR, captured IgG, Tau monomer analyte, 1:1 model; fit-quality column: Yes. A digest of the protocol:
(§2)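 SPR read-out: Rmax divided by captured-IgG Ligand Level gives Normalized Rmax; post-stress (40° C., 2 weeks) over pre-stress (~4° C.) value is the Stability Index. Tau analyte at 0, 26.5, 265 nM, 180 s association, 300 s dissociation, multi-cycle kinetics, 1:1 model.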

Assay [5] deals with T4, recombinant human Tau monomer, 2N4R …. Kind of assay: SPR; Normalized Rmax post-stress (2 weeks 40 C) / pre-stress. A digest of the protocol: as §2
A general note: Surface plasmon resonance follows binding to a sensor surface in real time, without labels.

The target is the same in assay [6]. Kind of assay: SPR screen, hIgG captured, Tau monomer analyte. On the procedure: (§3) Grafting onto consensus VH3, Vκ2 and Vκ1 frameworks was assessed. The heavy chain graft included murine residue at position 49 (Kabat numbering system). The Vκ2 graft included murine residues in framework positions 2 and 4. The Vκ1 graft included murine residues in framework positions 2, 4 and 43. Humanized variants were constructed by gene synthesis and subcloning into human IgG1 or IgG4 and Kappa chain mammalian expression vectors. Antibodies were expressed by co-transfection of the heavy and light chain plasmids into CHO cells and purified with affinity resin MabSelect Sure. Humanized variants were screened for affinity to human Tau monomer using the Biacore human IgG capture kit, a Series S CM5 chip and a Biacore T200 instrument. Antibodies were diluted to 2 μg/ml and captured for 15 seconds at 10 μl/min. Association and dissociation of 100, 33, 11 and 3.7 nM human Tau monomer in 10 mM HEPES pH7.4, 150 mM NaCl, 0.05% Tween 20 (running buffer, HBSP) was monitored for 180 seconds and 600 seconds respectively at a flow rate of 30 μl/min. A 1:1 binding model was applied to the results (Table 7).

For assay [7] the target is unchanged. Kind of assay: SPR detailed kinetics, hIgG captured, Tau monomer analyte. How it is done:
as §3, with “Antibodies were diluted to 2 μg/ml and captured for 15 seconds at 10 μl/min.” left out, “A 1:1 binding model was applied to the results (Table 7).” left out
Antibody variants hu37D3-H9.v1, hu37D3-H9.v2, hu37D3-H9.v5 and hu37D3-H9.v6 were characterized further by surface plasmon resonance with additional antibody concentrations and longer association/dissociation times. These variants were analyzed with a broader range of human Tau monomer concentrations (1.2, 3.7, 11.1, 11.1, 33.3, 100 nM) and increased association (300 seconds) and dissociation (1200 seconds) periods. […]

For assay [8] the target is unchanged. Kind of assay: SPR, hIgG captured, Tau monomer analyte. How it is done: Affinity was assessed at 25° C. using a Biacore T200 instrument, the GE Biacore human IgG capture kit and a CM5 Series S chip. The hIgG were diluted to 2 μg/ml in 10 mM HEPES pH7.4, 150 mM NaCl, 0.05% Tween 20 (running buffer, HBSP) and captured at a flow rate of 10 μl/min for 22 seconds. […] Between cycles the surface was regenerated using a 30 second injection of 3M Magnesium Chloride at 10 μl/min. A 1:1 binding model was fitted to the data and affinities for hu37D3-H9.v5 and hu37D3-H9.v5.3 (also referred to herein as hu37D3-H9.v5 N28D) calculated using kinetic analysis. Parameters used for the 1:1 fitting included the Instrument default of local fitting for the “RI” parameter.

For assay [9] the target is unchanged. Kind of assay: SPR screen, hIgG captured, Tau monomer analyte; mean of n = 3. From the text:
Antibody 125B11-H3 was humanized onto VH3 and Vκ1 consensus frameworks. The heavy chain graft included murine residues at position 78 (Kabat numbering system). The Vκ1 graft included murine residues in framework positions 43 and 87. The light chain of 113F5-F7 was also humanized onto the Vκ1 framework, with additional murine residues at framework positions 43 and 87. Humanized variant heavy chains (125B11) and light chains (125B11 and 113F5-F7) were co-transfected in multiple combinations and purified in 96-well format as described above. Humanized variants were then screened for affinity for human Tau monomer using the Biacore human IgG capture kit, a Series S CM5 chip and a Biacore T200 instrument. Antibodies were diluted to 2 μg/ml and captured for 15 seconds at 10 μl/min. Association and dissociation of 0, 100 and 500 nM human Tau monomer in HBSP was monitored for 180s and 300s respectively at a flow rate of 40 μl/min. A 1:1 binding model was applied to the results (Table 9).
Variants hu125B11.v17 (HC3+LC1), hu125B11.v26 (HC4+LC2) and hu125B 11.v28 (HC4+LC4) were selected for high-resolution kinetic analysis based on the affinity screen (Table 10). Antibody 94B2-C1 was humanized onto VH1 and Vx2 frameworks. The heavy chain graft also included murine residues at position 28, 29, 67, 69, 71, and 73 (Kabat numbering system). […]

B1: 14F5-D9 (antibody, V domains shown)
VH: EVKLVESGGGLVQPGGSLRLSCATSGFTFSDFYMEWVRQSPGKRLEWIAASKNKANDYTTEYNASVKDRFFVSRDTSQSILYLQMNALRAEDTAIYYCARDALGTVFAYWGQGTLVTVSA
VL: DVVMTQTPLSLPVSLGDQASISCRSSQSLVHSNGNTYLHWYLQKPGQSPKLLIYKVFNRFSGVPDRFSGSGSGTDFTLKISRVEAEDLGVYFCSQSTLVPLTFGAGTKLELK
notes: hybridoma supernatant
As to B1, the binding result in assay [1], in assay [2] and in assay [3] was “binds” each time.

B2: hu37D3-H9.v5 (antibody, V domains shown)
VH: EVQLVESGGGLVQPGGSLRLSCAASGLIFRSYGMSWVRQAPGKGLEWVATINSGGTYTYYPDSVKGRFTISRDNSKNTLYLQMNSLRAEDTAVYYCANSYSGAMDYWGQGTLVTVSS
VL: EDVLTQTPLSLPVTPGQPASISCRSSQSIVHSNGNTYFEWYLQKPGQSPQLLIYKVSNRFSGVPDRFSGSGSGTDFTLKISRVEAEDVGVYYCFQGSLVPWTFGQGTKVEIK
notes: human IgG1 or IgG4, kappa
Turning to B2, the Kd in [4] came to 0.9 nM; in assay [6], 1.9 nM; in assay [7], 0.8 nM. Moreover, the “Stability Index” value in assay [5] turned out to be 73%.

B3: hu37D3-H9.v1 (antibody, V domains shown)
VH: B2 VH
VL: EDQLTQSPSSLSASVGDRVTITCRSSQSIVHSNGNTYFEWYQQKPGKSPKLLIYKVSNRFSGVPSRFSGSGSGTDFTLTISSLQPEDFATYYCFQGSLVPWTFGQGTKVEIK
notes: human IgG1 or IgG4, kappa
As to B3, the dissociation constant (Kd) was 4.1 nM in [6]; 1.1 nM and 1 nM in [7].

B4: hu37D3-H9.v5 N28D hIgG1 (antibody, name in Kabat numbering, V domains shown)
VH: B2 VH
VL: B2 VL with N33D
notes: human IgG1, kappa; also called hu37D3-H9.v5.3
For the molecule B4, the Kd in assay [4] is 73.2 nM; in assay [8] it was 160 nM. In addition, the “Stability Index” value in assay [5] is 70%. Besides, the “fold reduction in affinity against hu37D3-H9.v5” value in assay [8] was over 100 fold.

B5: hu94B2 HC1 + LC9 (antibody, V domains shown)
VH: EVQLVQSGAEVKKPGASVKVSCKASGYSLTGYTMNWVRQAPGQGLEWIGLISPYNGVTSYNQKFKGRATLTVDKSTSTAYLELSSLRSEDTAVYYCARQGAYWGQGTLVTVSS
VL: DVVMTQTPLSLPVTPGQPASISCKSSQSLLDSDGKTYLNWLLQKPGQSPQRLIYLVSKLDSGVPDRFSGSGSGTDFTLKISRVEAEDVGVYYCWQGTHFPWTFGQGTKVEIK
On to B5, for which the Kd in assay [9] came to 3.8 nM.

B6: 15C6-A7 (antibody, V domains shown)
VH: EVQLQQSGPELVKPGASVMMTCKASGYTFTDYYMKWVKQSNGKSLEWIGDLDPYTGGANYNQKFKGKATLTVDKSSSTAYMHLNSLTSEDSAVYYCARSRGYGDSFAYWGQGTLVTVSA
VL: DVLMTQTPLSLPVSLGDQASISCRSSQNIVHSNGNTYLEWYLQKPGQSPKLLIYKVSNRFSGVPDKFSGSGSGTDFTLKISRVEAEDLGVYFCFQGSHVPPTFGGGTKLEIK
notes: hybridoma supernatant
As for B6, the binding result in assay [1], in assay [2] and in assay [3] was “binds” throughout.
